According to paper PMC11161652, “ASXLs binding to the PHD2/3 fingers of MLL4 provides a mechanism for the recruitment of BAP1 to active enhancers” (Nature Communications, 2024):

Assays:
[1] = system: active enhancer upstream of GRHL2 gene in K562 ASXL2 KD cells; assay: ChIP-qPCR at active enhancer upstream of GRHL2; type: cell-based, human; details: K562 ASXL2 KD cells complemented from AAVS1; IP/input corrected for total H3; three biological replicates
Description: K562 cell lines with knocked down expression of endogenous ASXL2 were obtained after double infection of lentivirus expressing Cas9 and 4 different gRNAs targeting the end of exon 1 (pLENTI_CRISPR_V2, co-selection by FACS with GFP). Clone 1 L was selected (obtained with gRNA 1: 5′-[…]-3′ cutting at the very end of exon 1) for transfection of WT and DMBH ASXL2 vectors for integration and stable expression from the AAVS1 safe harbor, as described for the tagged K562 cell lines used for purification. Expression levels of endogenous ASXL2, WT and ΔMBH ASXL2 were monitored by running SDS-PAGE and transferring onto nitrocellulose membrane. Anti-FLAG M2 conjugated to horseradish peroxidase (A8592, Sigma) was used at 1:10,000 dilution and anti-ASXL2, at 1:2,000 (Cell Signaling (E623X), CS71257, lot:1). Immunoblots were visualized using a Western Lightning plus ECL reagent (Perkin-Elmer).
Crosslinked chromatin from K562 cells and immunoprecipitations were prepared as previously described. For chromatin immunoprecipitation, 100 μg of chromatin was incubated with 2 μg anti-H2AK119ub (Cell Signaling, 8240S, D27C4 lot:9) or 3 μg anti-H3 (Abcam, ab1791, lot GR3421644-1), 2 μg anti-H3Kme1 (Abcam, ab8895, lot GR442591-1), 2 μg anti-H3K27ac (Thermo Fisher, MA5-23516, lot: ZA4181671) or 0.3 μg anti-H3K27me3 (Cell Signaling, C36B11, 9733 S lot:19) antibodies overnight at 4 °C. 25 μl of Protein A Dynabeads were then added to each sample, and the mixtures were incubated at 4 °C for 4 h. The beads were washed extensively and eluted with 1% SDS and 0.1 M NaHCO3. Cross-linked samples were reversed by heating overnight at 65 °C in the presence of 0.2 M NaCl. Samples were then treated with RNase A and proteinase K for 2 h, and DNA was recovered using MinElute PCR purification Kit (Qiagen, 28004) according to the manufacturer’s instructions. Quantitative real-time PCR corrected for primer efficiencies in the linear range was performed using SYBR Green I (Roche, 04877352001) on a LightCycler 480 (Roche). Primers for 5′ end of active enhancer: Fwd: 5′-[…]; Rev: 5′-[…]; For 3′ end: Fwd: 5′-[…], Rev: 5′-[…].

GST-MLL3PHD2/3 = assay: GST pull-down, WT MLL3PHD2/3; type: binding, human; details: WT GST-MLL3PHD2/3; HEK293FT lysate, 3 h at 4 °C, western blot; n = 3
Experimental: (§1) Pull-down assays were performed by mixing resin-bound GST-MLL3PHD2/3 and GST-MLL4PHD2/3 (wild type and mutants) with lysates of HEK293FT expressing Myc-ASXL1, Myc-ASXL2 or Myc-ASXL2ΔMBH. Pellets of HEK293FT cells transfected with the appropriate pDEST expression construct (15 μg/dish using polyethylenimine (PEI)) were lysed with 10 times their volume of lysis buffer (50 mM Tris pH 7.3, 100 mM NaCl, 1 mM DTT, 1 mM EDTA, 1 mM PMSF, 0.1% Tween20, 1/100 anti-protease (Sigma)) and sonicated with a probe sonicator (Branson digital sonifier 450) calibrated at 40% amplitude for 3–4 rounds during 40–60 s. Lysates were then centrifuged in a Sorvall Lynx 6000 (rotor: F21-8x50Y) at 15,000 RPM during 20 min. Approximatively 9 μg of purified GST-fusion proteins bound to GSH resin (Sigma, G4510) were used for each condition. Final volume of GSH resin was adjusted to 30 μl per condition with empty GSH beads and incubated with 1.5 mL of HEK293FT lysate expressing Myc-ASXL1, Myc-ASXL2 or Myc-ASXL2ΔMBH for 3 h at 4 °C on a rotative system. A fraction of the reaction mixture (80 μL) was collected as the input. After the incubation, beads were washed 5 times and mixed with 100 μL of Laemmli buffer. Samples were loaded on 8% or 15% SDS-acrylamide gels and processed for western blotting.

PR-DUB complex = assay: Tandem affinity purification: association with PR-DUB complex; type: cell-based, human; details: K562 soluble nuclear extracts, 3Flag-2Strep tag, western blot and mass spectrometry
Experimental: (§2) Isogenic K562 cell lines expressing 3xFlag2xStrep-tagged ASXL2 WT and ΔMBH (aa 650-670), were generated by integration at the AAVS1 safe harbor locus after DSB induction and recombination targeted by co-transfection with a ZFN expression plasmid, as previously described. 2 × 10^5 cells were transfected with 400 ng of ZFN expression vector and 4 μg of donor constructs. Selection and cloning were performed in RPMI medium supplemented with 0.5 μg/mL puromycin starting 2–3 days post transfection. Clones were obtained by limiting dilution and expanded before harvest for western blot analysis.
(§3) For purification of native complexes, after large-scale expansion of K562 clones, affinity purifications of tagged ASXL2 WT and ΔMBH (aa 650-670) were performed on nuclear extracts as previously described. Briefly, nuclear extracts were prepared following standard procedures and pre-cleared with CL6B Sepharose beads. […] Typically, 5–15 μl of the elutions (1–3% of total) was loaded on NuPAGE 4–12% Bis-Tris gels (Invitrogen) and analyzed by silver staining and western blots. […] Purified fractions were prepared and analyzed at the Proteomics Platform of the Quebec Genomic Center using an Orbitrap Fusion mass spectrometer (Thermo Fisher Scientific) as previously described. […]

MLL3/4 complexes = assay: Tandem affinity purification: interaction with MLL3/4 complexes; type: cell-based, human; details: K562 soluble nuclear extracts, 3Flag-2Strep tag, western blot and mass spectrometry
Experimental: as §2, §3

[2] = system: H3K4 (recombinant histone octamers or mono-nucleosomes); assay: H3K4 histone methyltransferase assay; type: biochemical, human; details: purified complexes, 50 μM S-adenosyl-L-methionine, 8 h at 30 °C, n = 2
Experimental: Equivalent amounts of purified ASXL2 WT and ΔMBH complexes were incubated with 0.5 μg of reconstituted recombinant mono-nucleosomes or histone octamers as substrates. All HMT assays were performed in 50 mM Tris-HCl pH 8, 100 mM KCl, 5 mM MgCl2, 0.1 mM DTT, 10% glycerol in the presence of 50 μM S-adenosyl-L-methionine (Sigma, A7007). After an 8 h incubation at 30 °C, 4X Laemmli buffer was added, the samples run on 15% SDS-PAGE and transferred on nitrocellulose membrane. Immunoblotting was performed with an anti-H3K4me1 (Ab8895, rabbit polyclonal) diluted 1:1000 followed by HRP conjugated secondary goat anti-rabbit antibody (Sigma) used at a 1:10,000 dilution. The immunoblots were visualized using a Western Lightning plus-ECL reagent (Perkin-Elmer). Anti-H4 (Abcam, Ab7311, rabbit polyclonal) was used at a 1:2,500 dilution.

H2AK119 = H2AK119 deubiquitination assay; type: biochemical, human
Experimental: The deubiquitination reactions were done by adding equivalent amounts of ASXL2 WT or ΔMBH (4 μl E1-F) native complexes purified from K562 cells to 0.5 μg of chromatin enriched extracts from K562 cells, incubated at 37 °C in 50 mM Tris-HCl pH 7.3, 50 mM NaCl, 1 mM MgCl2, 1 mM DTT, 1 mM PMSF, 10 μg/ml Leupeptin, 10 μg/ml Pepstatin A, 25 μg/ml Aprotinin. After 3 or 6 h incubation, 4X Laemmli buffer was added, the samples run on 15% SDS-PAGE and transferred on nitrocellulose membrane. Immunoblotting was performed with an anti-H2AK119ub (Cell Signaling, D27C4, rabbit polyclonal) diluted 1:2000 followed by HRP conjugated secondary goat anti-rabbit antibody (Sigma) used at a 1:10,000 dilution. The immunoblots were visualized using a Western Lightning plus-ECL reagent (Perkin-Elmer). Anti-H3 (Abcam, Ab1791, rabbit polyclonal) was used at a 1:50,000 dilution.
Cell pellets were harvested 2 days post-transfection and lysed with 10 times their own volume with EB300 lysis buffer (50 mM Tris pH 7.3, 300 mM NaCl, 0.5% Triton X100 (V/V), 5 mM EDTA, 50 mM NaF, 1 mM Na3VO4 (activated), 10 mM Beta-glycerol-phosphate, 1 mM DTT, 1 mM PMSF, 1/100 anti-protease (Sigma)). Lysates were incubated on ice for 30 min before centrifugation in a Sorvall Lynx 6000 (rotor: F21-8x50Y) at 15,000 RPM during 20 min. Supernatants were collected and diluted with EB0 (50 mM Tris pH 7.3, 0.5% Triton X100 (V/V), 5 mM EDTA, 50 mM NaF, 1 mM Na3VO4, 10 mM Beta-glycerol-phosphate, 1 mM DTT, 1 mM PMSF, 1/100 anti-protease) to adjust the final concentration of NaCl to 150 mM. Agarose anti-FlagM2 beads (40 μL) (Sigma, A2220) were added to each lysate and incubated overnight at 4 °C on a rotative system. The next day, beads were washed 5 times with the wash buffer (50 mM Tris pH 7.3, 150 mM NaCl, 0.5% Triton X100 (V/V), 1/500 anti-protease, 1 mM DTT, 1 mM PMSF). […] Following three elutions of 2 h each, the pooled fractions were incubated with 40 μL of anti-HA beads (Sigma A2095) overnight at 4 °C on a rotative system. […]

GST-MLL4PHD2/3 = assay: GST pull-down, WT MLL4PHD2/3; type: binding, human; details: WT GST-MLL4PHD2/3; HEK293FT lysate, 3 h at 4 °C, western blot; n = 3
Experimental: as §1

B1: ASXL2ΔMBH: ΔMBH ASXL2 mutant lacking the MLL3/4-binding domain (aa 650-670) (protein)
chain: MREKGRRKKGRTWAEAAKTVLEKYPNTPMSHKEILQVIQREGLKEIRSGTSPLACLNAMLHTNSRGEEGIFYKVPGRMGVYTLKKDVPDGVKELSEGSEESSDGQSDSQSSENSSSSSDGGSNKEGKKSRWKRKVSSSSPQSGCPSPTIPAGKVISPSQKHSKKALKQALKQQQQKKQQQQCRPSISISSNQHLSLKTVKAASDSVPAKPATWEGKQSDGQTGSPQNSNSSFSSSVKVENTLLGLGKKSFQRSERLHTRQMKRTKCADIDVETPDSILVNTNLRALINKHTFSVLPGDCQQRLLLLLPEVDRQVGPDGLMKLNGSALNNEFFTSAAQGWKERLSEGEFTPEMQVRIRQEIEKEKKVEPWKEQFFESYYGQSSGLSLEDSKKLTASPSDPKVKKTPAEQPKSMPVSEASLIRIVPVVSQSECKEEALQMSSPGRKEECESQGEVQPNFSTSSEPLLSSALNTHELSSILPIKCPKDEDLLEQKPVTSAEQESEKNHLTTASNYNKSESQESLVTSPSKPKSPGVEKPIVKPTAGAGPQETNMKEPLATLVDQSPESLKRKSSLTQEEAPVSWEKRPRVTENRQHQQPFQVSPQPFLNRGDRIQVRKVPPLKIPVSRISPMPFHPSQVSPRARFPVSITSPRAAAAAAAAAAAAASVGGTIPGPGPGGGQGPGEGGEGQTARGGSPGSDRVSETGKGPTLELAGTGSRGGTRELLPCGPETQPQSETKTTPSQAQPHSVSGAQLQQTPPVPPTPAVSGACTSVPSPAHIEKLDNEKLNPTRATATVASVSHPQGPSSCRQEKAPSPTGPALISGASPVHCAADGTVELKAGPSKNIPNPSASSKTDASVPVAVTPSPLTSLLTTATLEKLPVPQVSATTAPAGSAPPSSTLPAASSLKTPGTSLNMNGPTLRPTSSIPANNPLVTQLLQGKDVPMEQILPKPLTKVEMKTVPLTAKEERGMGALIATNTTENSTREEVNERQSHPATQQQLGKTLQSKQLPQVPRPLQLFSAKELRDSSIDTHQYHEGLSKATQDQILQTLIQRVRRQNLLSVVPPSQFNFAHSGFQLEDISTSQRFMLGFAGRRTSKPAMAGHYLLNISTYGRGSESFRRTHSVNPEDRFCLSSPTEALKMGYTDCKNATGESSSSKEDDTDEESTGDEQESVTVKEEPQVSQSAGKGDTSSGPHSRETLSTSDCLASKNVKAEIPLNEQTTLSKENYLFTRGQTFDEKTLARDLIQAAQKQMAHAVRGKAIRSSPELFSSTVLPLPADSPTHQPLLLPPLQTPKLYGSPTQIGPSYRGMINVSTSSDMDHNSAVPGSQVSSNVGDVMSFSVTVTTIPASQAMNPSSHGQTIPVQAFSEENSIEGTPSKCYCRLKAMIMCKGCGAFCHDDCIGPSKLCVSCLVVR
modifications: left off: 3xFlag, end not stated, kept | 2xStrep, end not stated, kept
[1]
  H2AK119ub level: not the ΔMBH ASXL2 mutant led to a decrease in H2AK119ub level
  H3K4me1 level: not affected
GST-MLL3PHD2/3
  association in pull-down: essentially abolished
PR-DUB complex
  association with PR-DUB complex: stably associates with the expected components of the PR-DUB complex
MLL3/4 complexes
  interaction with MLL3/4 complexes: abrogated the interaction between ASXL2 and MLL3/4 in vivo
[2]
  mono-methylation of H3K4: markedly decreased
H2AK119; BAP1/ASXL2 complexes from co-transfected HEK293FT cells, purified native nucleosomes, room temperature, n=2
  deubiquitinase activity toward H2AK119Ub in vitro: does not affect
H2AK119; purified complexes on human chromatin, 37 °C, 3 or 6 h, immunoblot
  de-ubiquitination of H2AK119: efficient and equivalent de-ubiquitination of H2AK119
GST-MLL4PHD2/3
  association in pull-down: essentially abolished
